Test results reported in PMC12848000.

Experiments:
[1] = molecular target: ^P32-His-PKA-N8CUL1/RBX1 (CUL1/RBX1 neddylated with His-PKA-NEDD8, 32P-labelled) (UniProt Q13616)
[2] = molecular target: non-neddylated CUL1/RBX1 (StrepII2x-CUL1/RBX1), wild type (human) (UniProt Q13616); assay: SPR; StrepII2x-CUL1/RBX1 (non-neddylated) captured on a Strep-Tactin CM5 chip (~100 RU), CSN injected in single cycle (40-5120 nM, 180 s contact), 25 C, HBS-P+ with 1 mM TCEP; steady-state fit, 1:1 Langmuir
[3] = molecular target: neddylated CUL1/RBX1 (StrepII2x-^N8CUL1/RBX1), wild type (UniProt Q13616); assay: SPR; StrepII2x-^N8CUL1/RBX1 captured on a Strep-Tactin CM5 chip (~100 RU), CSN injected in single cycle (0.625-80 nM, 80 s contact), 25 C, 10 mM HEPES pH 7.4, 150 mM NaCl, 0.05% Tween 20, 1 mM TCEP; steady-state fit, 1:1 Langmuir
neddylated CUL1/RBX1 (StrepII2x-^N8CUL1/RBX1), wild type, sequence (Q13616 whole entry, chain 1 of 3): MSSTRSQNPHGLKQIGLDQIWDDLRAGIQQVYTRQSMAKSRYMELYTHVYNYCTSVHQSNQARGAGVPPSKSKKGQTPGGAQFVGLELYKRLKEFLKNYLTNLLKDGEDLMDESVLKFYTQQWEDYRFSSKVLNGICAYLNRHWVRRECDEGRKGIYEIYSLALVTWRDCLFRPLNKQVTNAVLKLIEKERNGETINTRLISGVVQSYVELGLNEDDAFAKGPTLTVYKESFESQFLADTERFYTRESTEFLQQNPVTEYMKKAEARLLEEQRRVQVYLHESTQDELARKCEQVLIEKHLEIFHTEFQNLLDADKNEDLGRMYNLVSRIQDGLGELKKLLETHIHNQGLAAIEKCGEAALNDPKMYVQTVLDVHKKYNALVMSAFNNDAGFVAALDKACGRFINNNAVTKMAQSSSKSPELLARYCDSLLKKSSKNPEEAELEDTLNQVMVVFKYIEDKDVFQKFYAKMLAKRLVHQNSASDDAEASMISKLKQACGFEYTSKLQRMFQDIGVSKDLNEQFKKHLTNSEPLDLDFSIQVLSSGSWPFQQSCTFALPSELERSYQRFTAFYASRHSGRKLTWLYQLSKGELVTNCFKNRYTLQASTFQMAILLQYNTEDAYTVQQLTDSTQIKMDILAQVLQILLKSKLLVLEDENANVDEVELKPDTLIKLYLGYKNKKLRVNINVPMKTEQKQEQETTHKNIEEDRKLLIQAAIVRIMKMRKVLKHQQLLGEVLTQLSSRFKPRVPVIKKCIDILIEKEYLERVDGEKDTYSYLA
neddylated CUL1/RBX1 (StrepII2x-^N8CUL1/RBX1), wild type, sequence (P62877 whole entry, chain 2 of 3, further chain): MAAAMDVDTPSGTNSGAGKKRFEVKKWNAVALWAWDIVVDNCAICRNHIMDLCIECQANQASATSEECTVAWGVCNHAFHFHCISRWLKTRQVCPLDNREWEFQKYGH
neddylated CUL1/RBX1 (StrepII2x-^N8CUL1/RBX1), wild type, sequence (Q15843 1-76, chain 3 of 3, further chain): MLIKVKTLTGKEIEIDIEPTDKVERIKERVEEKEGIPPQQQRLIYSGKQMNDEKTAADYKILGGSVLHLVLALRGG

^P32-His-PKA-N8CUL1/RBX1 (CUL1/RBX1 neddylated with His-PKA-NEDD8, 32P-labelled), sequence (Q13616 whole entry, chain 1 of 3): as the sequence (Q13616 whole entry, chain 1 of 3) above
^P32-His-PKA-N8CUL1/RBX1 (CUL1/RBX1 neddylated with His-PKA-NEDD8, 32P-labelled), sequence (P62877 whole entry, chain 2 of 3, further chain): as the sequence (P62877 whole entry, chain 2 of 3, further chain) above
^P32-His-PKA-N8CUL1/RBX1 (CUL1/RBX1 neddylated with His-PKA-NEDD8, 32P-labelled), sequence (Q15843 1-76, chain 3 of 3, further chain): as the sequence (Q15843 1-76, chain 3 of 3, further chain) above
non-neddylated CUL1/RBX1 (StrepII2x-CUL1/RBX1), wild type (human), sequence (Q13616 whole entry, chain 1 of 2): as the sequence (Q13616 whole entry, chain 1 of 3) above
non-neddylated CUL1/RBX1 (StrepII2x-CUL1/RBX1), wild type (human), sequence (P62877 whole entry, chain 2 of 2, further chain): as the sequence (P62877 whole entry, chain 2 of 3, further chain) above

Row | Substance | in vitro deneddylation activity, normalised to CSN^5WT [1] [% reduction] | Kd [2] [nM] | Kd [3] [nM]
1 | CSN^5T105F (9CSN with CSN5 T105F) (from UniProt Q13098 1-491; P61201 1-443; Q9UNS2 1-423; Q9BT78 1-406; Q92905 1-334; Q7L5N1 1-327; Q9H9Q2 1-264; Q99627 1-209; Q8WXC6 1-57) (complex) | > 50 |  | 
2 | 8CSN^5H138A (CSN^5H138A complex without CSNAP: CSN1-8, CSN5 H138A) (from UniProt Q13098 1-491; P61201 1-443; Q9UNS2 1-423; Q9BT78 1-406; Q92905 1-334; Q7L5N1 1-327; Q9H9Q2 1-264; Q99627 1-209) |  | 90 | 6
